{"source": "patent US20190023771A1", "about": "(MERZ PHARMA, published 2019)", "binders": {"B1": {"name": "mouse monoclonal antibody produced by hybridoma pCNEI 32-7-1, 3614-000 (antibody, V domains shown)", "VH": "EVQLVESGGGLVQPKGSLKLSCAASGYTFNTYAVNWVRQAPGKGLEWVARIRSKSYNYVTYYADSVKDRFTISRDDSQSMLYLQMNNLKTEDTAMYYCVKGNGNYVSFAYWGQGTLVTVSA", "VL": "QLVLTQSSSASFSLGASAKLTCTLSSQHNTYTIEWYQQQPLKPPKYVMELKKDGSHSTGDGIPDRFSGSSSGADRYLSISNIQPEDEAIYICGVGDTIKEQFVYVFGGGTKVTVL", "notes": "also called monoclonal antibody of the invention; DSM ACC3261"}}, "target": "T1, non-cleaved SNAP-25206 (UniProt P60880 1-206)", "T1 construct": "range 1-206; also called SNAP-25206 uncleaved substrate", "T1 sequence (P60880 whole entry)": "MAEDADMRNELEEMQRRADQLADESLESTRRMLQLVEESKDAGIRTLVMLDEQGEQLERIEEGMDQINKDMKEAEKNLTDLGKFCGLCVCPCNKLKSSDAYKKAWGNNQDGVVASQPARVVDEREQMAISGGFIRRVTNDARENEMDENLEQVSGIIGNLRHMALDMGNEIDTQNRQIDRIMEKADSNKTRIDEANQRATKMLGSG", "assay": "ELISA and Western blots", "data": [{"binder": "B1", "values": [{"measurement": "binding result", "value": "no binding"}]}]}
